Measured values reported in patent publication US20060217891A1.
Ends that are not written are not given here.

Biological target: Fas (Receptor) on the Fas-expressing human ovarian cancer cell line NOS4 (human) (UniProt P25445)
Test: cell-based or functional assay

Fas (Receptor) on the Fas-expressing human ovarian cancer cell line NOS4 (human), sequence (P25445 26-335): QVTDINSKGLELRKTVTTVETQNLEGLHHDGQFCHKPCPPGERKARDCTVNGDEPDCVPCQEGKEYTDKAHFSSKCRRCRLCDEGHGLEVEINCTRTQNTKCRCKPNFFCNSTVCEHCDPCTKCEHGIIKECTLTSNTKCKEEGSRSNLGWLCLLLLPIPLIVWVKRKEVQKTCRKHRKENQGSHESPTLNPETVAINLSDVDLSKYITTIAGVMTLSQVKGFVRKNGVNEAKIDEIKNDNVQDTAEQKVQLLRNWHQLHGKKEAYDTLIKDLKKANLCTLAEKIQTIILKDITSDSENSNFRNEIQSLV

Apoptosis induction Activity (%) of NOS4 cells at 0.01 µg/ml	Apoptosis induction Activity (%) of NOS4 cells at 0.03 µg/ml	Apoptosis induction Activity (%) of NOS4 cells at 0.1 µg/ml	Apoptosis induction Activity (%) of NOS4 cells at 0.3 µg/ml	Apoptosis induction Activity (%) of NOS4 cells at 1 µg/ml	apoptosis induction potential relative to the monomer FRP-2	apoptosis of NOS4 cells, same method as Test Example 1, at 5 mg/ml as printed	Binder
7%	15%	48%	67%	78%	–	–	WEWT (peptide, part only, also: tetramer: each copy bound to one of 4 branches of MAP-8, remaining four amino groups of MAP-8 protected) [(FLLP-1)4-MAP8 (four WEWT peptides bound to MAP-8)]
–	–	–	–	–	30 times	50%	EPPMTFISIHTMCH (peptide, part only, also: tetramer: each copy bound to one of four branches of a lysine polymer (MAP)) [Fas complementary peptide tetramer [(FRP-2)4-MAP]]
